The data set in a line: yeast display, Sf9 membrane polyspecificity reagent, FACS + sequencing; frameworks hold sequencing errors. The method in brief:
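Sorting gates, low and high (top ~1%), were placed on anti-HA fluorescence to track expression and on streptavidin fluorescence to track reagent binding. A clone's polyreactivity label is taken from the gate it came out of. The reagent was 10% biotinylated, detergent-solubilized Sf9 membrane, applied for 1 hour at 4 °C to galactose-induced yeast display cells.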
On to “QVQLVESGGGLVQAGGSLRLSCAASGRIFRGNAMGWYRQAPGKERELVAAILTGVSTYYADSVKGRFTISRDNAKNTVYLQMNSLNPEDTAVYYCADERPSRRSVYEYWGQCTQVTVSS”, for which the “polyreactivity (PSR sort gate)” value is given as “low polyreactivity”. With “QVQLVESGGGLVQAGGSLSLSCAASGRITRFNAMGWYRQAPGKERELVAAITRGASTYYADSVKGRFTISRDNAKNSVYLQMNRLKQEDTAVYYCAAAPRYSWTSVARYDYWGQGTQVTVSS”, the “polyreactivity (PSR sort gate)” value was “high polyreactivity”.

On to “QVQLVESGGGLVQAGGSLRLSCAASGRTFIENAMGWYRQAPGKERELVAAISRGGSTYYADSVKGRFTMSRDNAKNTVYLQMNSLKPEDTAVYYCAADYFYLFHYSSQKYSRYEYWGQGTQVTVSS”, for which the “polyreactivity (PSR sort gate)” value is “low polyreactivity”. Turning to “QVQLVESGGGLVQAGGSLRLSCADSGRIFDVNDKRSYRQAPGKERELVAAITYSGTDTYYADSVKGRFTISRDNAKNTVYLQMNSLKPEDTAVYYCAAEFTGWEYIGRDYWGQGTQVTVSS”, the “polyreactivity (PSR sort gate)” value is on record as “low polyreactivity”.

For “QVQLVESGGGLVQAGGSLRLSCAASGFIFNYYVMGGYRQAPGKERELVATISWRGGRTYYADSVKGRFTISRDNAKNTVYLQMNSLKPEDTAVYYCAADSFYYRPEYDYWGQGTQVTVSS”, the “polyreactivity (PSR sort gate)” value was “low polyreactivity”. For the sequence “QVQLVESGGGLVQAGGSLRLSCAASGRTLYGYPMGWYRQAPGKERELVAAISKRGTRTYYADSVKGRFTISRDNAKNTVYIQMNSLKPEDTAVYYCAARYPPDEATMVYWGQGTQVTVSS”, the “polyreactivity (PSR sort gate)” value is reported as “high polyreactivity”. Turning to “QVQLVESGGGLVQAGGSLRLTCAASGRILVLNAMGWYRQAPGKERELVADITSGGSTYFADSVKGRFTISRDNAKNTVYLQMNSLKPEDTAVYYCAADWNTYPDYQQSYFVSYEYNYWGQGTQVTVSS”, the “polyreactivity (PSR sort gate)” value was “low polyreactivity”.

As to “QVQLVESGGGLVQAGGSLRLSCAASGFIFYHYAMGWYRQAPGKERELVAAISWSGGSTYYADSVKGRFTISRDNAKNTVYLQMNSLKPEDTAVYYCAAANTNRFPYGYWGQGTQVTVSS”, the “polyreactivity (PSR sort gate)” value was “high polyreactivity”. The result for “QVQLVESGGGLVQAGGSLRLICAASGSIFPRYVMGWSRQAPGKERELVAAITRRGGSTYYADSVKGRFTISRDNAKHTVYLQMNSLKPADTAVYYCNAKYRLEMDWGQGTQVTVSS” reads “high polyreactivity”; that for “QVQLVESGGGLVQAGGSLRLSCAASGSIFYFNDMGWYRQAPGKEREFVARITRSGSSTSYADSVKGRFTISRDNAKNTVYLQMNSLKPEDTAVYYCAARYRRYSTSRYYYWGQGTQVTVSS”, “high polyreactivity”; that for “QVQLVESGGGLVQAGGSLRLSCAASGSIFRQYAMGWYRQAPGKERELVAAISRGGITYYADSVKGRFTISRDNAKNTVYLQMNSLKPEDTAVYYCAARYGRGERGGFYWGQGTQVTVSS”, “high polyreactivity”. The result for “QVQLVESGGGLVQAGGSLRLSCAASGRTIASYTMGWYRPAPGKERDLVAAISKSGGSTYYADSVKGRFTISRDNSKNTVYLQMNSLKPEDTAVYYCNAVGARVASATGMEYWGQGTQVTVSS” reads “high polyreactivity”.

“QVQLVESGGGLVQAGGSLRLSCAASGSTLSIYAMGWYRQAPGKERELVAAISSIGGSTYYADSVKGRFTISRDNAKNTVYLQMNSLKPEDTAVYYCAAELYGGYYYWGQGTQVTVSS”: the “polyreactivity (PSR sort gate)” value is given as “high polyreactivity”. The result for “QVQLVESGGGLVQAGGSLRLSCAASGIIFSSSAMGWYRQAPGKEREVVAAITSCGNTNYADSVKGRFTISRDNAKNTVYLQMNSLNPEDTAVYYCNAETSFVWLAWHPYGFGDWGQGTQVTVSS” reads “low polyreactivity”; that for “QVQLVESGGGLVQAGGSLRLSCAASGGTLKYYAMGLYRQAPGKERELVATISSRGGSTYYADSVKGRFTISRDNAKNTVYLQMNSLKPEDTAVYYCARRYWVQSRYPEMDYWGQGTQVTVSS”, “high polyreactivity”; that for “QVQLVESGGGLVQAGGSLRLSCAASGITFGDYTMGWYRQAPGKERELVAVISSGGNTNYADSVKGRFTISRDNAKNTVYLQMNSLKPEDTAVYYCAAVIASYGTRYRGGYTRYYYWGQGTQVTVSS”, “high polyreactivity”.

As for “QVQHVESGGGLVQAGGSLRLSCAASGSTYGYYAMGWYRQAPGKERELVAAITSGGTTNYADSVKGRFTISRDNAKNTVYLQMNSLKPEDTAVYYCNAVGTFVRFWTDGRDGVTYDYWGQGTKVTVSS”, the “polyreactivity (PSR sort gate)” value is “low polyreactivity”. Under “QVQLVESGGGLVQAGGSLRLSCAASGRTIRYYTMGWYRQAPGKERELVATIRRGRTTYYADSVKGRFTISRDNEKNTVYLQMYSLKPEDTAVYYCAADFPSAEVDYWGQGTQVTVSS” stands “low polyreactivity”; under “QVQLVESGGGLVQAGGSLRLSCAASGRIFGRYAMGWYRQEPGKERELVASISWSGDSTYYADSVKGRFTISRDNAKNTVYLQMNSLKPEDTAVYYCNADPFIRTWYNYGYWGQGTQVTVSS”, “low polyreactivity”. Under “QVQLVESGGGLVQAGGSLRLSCAASGRTFVIYAMGWYRQAPGKEREFVPAISKGGGSTYYADSVKGRFTISRDNAKNTVYLQMNSLKPEDTAVYYCAAGYGTYYQSSRFDYWGQGTQVTVSS” stands “high polyreactivity”; under “QVQLVESGGGLVQAGGSLRLSCAASGIIFSYYARGWYRQAPGKDRELVAAISSSGVSTNYADSVKGRFTISRDNAKNTVYLQMTSLKPEDTAVYYCAADYGSWSNWGYEYWGQGTQVTVSS”, “high polyreactivity”. Under “QVHLVESGGGLVQAGGSLRLSCAASGSIFSGNAMGWYRQAPGKERELVAAITSSGGNTYYADSVKGRFTISRDNAKNTVYLQMNSLKPADTAVYYCAADGVYWRWYLYTFWMDYWGQGTQVTVSS” stands “low polyreactivity”. “QVQLVESGGGLVQAGGSLRLSCAASGSTFLTYAMGWYRQAPGKEREFVAAISSTGTGRTYYADSVKGRFTISRDNAKNTVYLQMNSLKPEDTAVYYCAADLYGTYDYWGQGTQVTVSS”: the “polyreactivity (PSR sort gate)” value is “low polyreactivity”. Under “QVQLVESGGGLVQAGGSLRLSCAASGITFSKYAMGWYRQAPGKERELVASITWSGTSTYYADSVKGRFTISRDNAKNTVYLQMNSLKPEDTAVYYCAAEGWGTFWRPPNGYGYEHDYWGQGTQVTVSS” stands “low polyreactivity”; under “QVQLVESGGGLVQAGGSLRLSCAASGIIYYENTMGWYRQAPGKERELVAPINSGGSTYYADCVKGRFTISRDNAKNTVYLQMNSLKPEDTAVYYCAADDYSGLYYSSTYRYEYWGQGTQVTVSS”, “low polyreactivity”; under “QVQMQEIGGGLVQASGSLRLSCAASGNIFPDYFMGWYRLAPGKEREFVANITGGSTTNYADSVKGRFTISRDNAKNTVYLQINSLKPEDTAVYYCAVNFGTEQHAYWGQGTQVTVSS”, “high polyreactivity”. The result for “QVQLVESGGGLVQAGGSLRLSCAASGSIFYGYAMGWYRQAPGKERELVAAITSGGRTYYADSVKGRFTISRDNAKNTVYLQMNSLKPEDTAVYYCNKLNYWSVRYEYWGQGTQVTVSS” reads “high polyreactivity”. Under “QVQLVESGGGLVQAGGSLRLSCAASGFTFKYNAMGWYRQAPGKERELVASISSGSTNYADSVKGRFTISRDNAKNTVYLQMNSLKPEDTAVYYCAASVSRGKRFRYGYVFKMDYWGQGTQVTVSS” stands “low polyreactivity”; under “QVQLVESGGGLVQAGGSLRLSCAASGSIFAYNAMGWYRQAPGKEREFVAVITRSDDSTYADSVKGRFTISRDNAKNSVYLQMNSLKPEDTAVYYCAAQPFVIDGGYRGDYWGQGTQVTVSS”, “low polyreactivity”; under “QVQLVESGGGLVQAGGSLRLSCAASGFISAYNAMGWYRPAPGKERELVAAITSGATTKYADSVKGRFTISRDNAKNTVYFQMHSLKPEDTAVYYCAAAPKRRYYVHSGGAYGYWGQGTQVTVSS”, “high polyreactivity”.
